The source of these data is paper PMC11076555, “Dishevelled2 activates WGEF via its interaction with a unique internal peptide motif of the GEF” (Communications Biology, 2024).

Sequences and labels used below:
B1: WGEF^pep (internal PDZ binding motif peptide of WGEF) (peptide)
peptide: GSTFSLWQDIP
notes: also called WGEF IPM peptide; source: synthetic peptide, bought: Sai Biotech
B2: WGEF^pepL6A (peptide)
peptide: GSTFSAWQDIP
notes: WGEF (Arhgef19), human residues 349-359 with L6A; numbers count on: the peptide (1-11); L6 is L354 of human WGEF and L407 of Xenopus WGEF (from the printed limits); source: synthetic peptide, bought: Sai Biotech
B3: WGEF^pepQ8A (peptide)
peptide: GSTFSLWADIP
notes: WGEF (Arhgef19), human residues 349-359 with Q8A; numbers count on: the peptide (1-11); Q8 is Q356 of human WGEF (from the printed limits); source: synthetic peptide, bought: Sai Biotech
B4: WGEF^pepI10A (peptide)
peptide: GSTFSLWQDAP
notes: WGEF (Arhgef19), human residues 349-359 with I10A; numbers count on: the peptide (1-11); I10 is I358 of human WGEF (from the printed limits); also called Ile at P1 to Ala; source: synthetic peptide, bought: Sai Biotech
B5: N3^pep (peptide)
peptide: EIVLWSDIP
notes: engineered peptide, closest homologue of WGEF^pep; structure with Dvl2^PDZ in PDB 3CC0; also called engineered internal peptide N3; source: synthetic peptide, bought: Sai Biotech
B6: Human Dishevelled2 PDZ domain (domain or fragment, UniProt O14641 261-354, looked up)
chain: MSLNIITVTLNMEKYNFLGISIVGQSNERGDGGIYIGSIMKGGAVAADGRIEPGDMLLQVNDMNFENMSNDDAVRVLRDIVHKPGPIVLTVAKC
modifications: Monolith Red-maleimide 2nd generation cysteine-reactive fluorescent label (in the MST experiments)
notes: Dishevelled2 (Dvl2), human, PDZ domain; Addgene plasmid 38876 changed by a stop codon after C354 to remove the peptide fused at the C-terminus of the PDZ; Used unlabelled in the GEF assays and labelled in MST; also called Dvl2^PDZ; hDvl2^PDZ; source: E. coli Rosetta (DE3), purified (Ni-NTA, TEV cleavage, second Ni-NTA, gel filtration); not shown: His6, N-terminal, cleaved

The target in assay [1] is B6. The experiment in a line: MST; 50 nM fluorescently labelled Dvl2^PDZ (Red-maleimide, cysteine reactive); peptides serially diluted 1:2 16 times from about 3.4 mM, hWGEF (330-581) 138-0.0042 uM; 25 C, 30 min incubation; 10 mM Tris-HCl pH 8, 150 mM NaCl, 2 mM DTT, 5% glycerol, 0.05% Tween20; Monolith NT.115; triplicates. The note with it: both partners purified.
Assay [2] concerns the target Xenopus laevis WGEF (330-856) (Xenopus laevis). The experiment in a line: cell-based or functional assay.
Assay [3] has as its target T1, human WGEF (330-581) (human, UniProt Q8IW93 330-581).
T1 construct: Weak-similarity guanine nucleotide exchange factor (WGEF, Arhgef19, Ephexin2), human, residues 330-581; also called hWGEF; hWGEF^330-581; not shown: GST, N-terminal, cleaved
T1 sequence (looked up): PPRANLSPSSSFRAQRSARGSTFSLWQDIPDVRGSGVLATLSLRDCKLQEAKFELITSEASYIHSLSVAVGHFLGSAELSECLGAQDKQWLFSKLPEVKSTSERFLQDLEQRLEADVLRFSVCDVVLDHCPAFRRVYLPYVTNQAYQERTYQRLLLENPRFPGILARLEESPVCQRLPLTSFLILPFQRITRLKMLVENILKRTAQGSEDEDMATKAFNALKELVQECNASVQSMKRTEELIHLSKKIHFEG
The experiment in a line: MST; 50 nM fluorescently labelled Dvl2^PDZ (Red-maleimide, cysteine reactive); peptides serially diluted 1:2 16 times from about 3.4 mM, hWGEF (330-581) 138-0.0042 uM; 25 C, 30 min incubation; 10 mM Tris-HCl pH 8, 150 mM NaCl, 2 mM DTT, 5% glycerol, 0.05% Tween20; Monolith NT.115; triplicates. The note with it: both partners purified.

For B1, the Kd in assay [1] was 45 µM.

Consider B2, for which the equilibrium dissociation constant (Kd) in assay [1] was 2400 µM.

Turning to B3, the Kd in assay [1] was found to be 8.5 µM.

B4: in assay [1], the Kd is 56 µM.

On to B5, for which, in assay [1], binding was put at a Kd of 54 µM.

Regarding B6, the “GEF activity of xWGEF330 (5 uM) on Mant-GDP loaded RhoA with 0, 25 and 50 uM Dvl2^PDZ; no observable change at 25 uM” value in assay [2] amounted to 4 fold. Binding in assay [3] was put at a Kd of 7.9 µM.

The Kd is the concentration at which binding is half-saturated. Lower therefore signals higher affinity.
